Measurements: publication PMC9482650, “Quantitative fragmentomics allow affinity mapping of interactomes” (Nature Communications, 2022)

T1: GRIP1_2, Q9Y3R0
T1 sequence (Q9Y3R0 145-248, limits assumed, looked up): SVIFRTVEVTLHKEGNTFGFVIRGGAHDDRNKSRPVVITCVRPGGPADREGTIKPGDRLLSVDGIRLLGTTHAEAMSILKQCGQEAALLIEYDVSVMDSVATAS

T2: RADIL, Q96JH8
T2 sequence (Q96JH8 971-1071, limits assumed, looked up): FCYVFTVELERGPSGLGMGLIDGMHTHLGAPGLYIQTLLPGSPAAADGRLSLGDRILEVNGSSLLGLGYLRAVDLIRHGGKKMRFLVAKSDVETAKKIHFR

T3: RHPN1, Q8TCX5
T3 sequence (Q8TCX5 508-602, limits assumed, looked up): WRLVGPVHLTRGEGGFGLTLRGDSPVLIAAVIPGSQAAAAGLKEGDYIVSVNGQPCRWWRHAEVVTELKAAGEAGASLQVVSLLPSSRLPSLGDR

T4: FRMPD1, Q5SYB0
T4 sequence (Q5SYB0 52-145, limits assumed, looked up): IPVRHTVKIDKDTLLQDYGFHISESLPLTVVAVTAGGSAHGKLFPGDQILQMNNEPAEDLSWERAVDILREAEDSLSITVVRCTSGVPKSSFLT

T5: LIN7A, O14910
T5 sequence (O14910 103-200, limits assumed, looked up): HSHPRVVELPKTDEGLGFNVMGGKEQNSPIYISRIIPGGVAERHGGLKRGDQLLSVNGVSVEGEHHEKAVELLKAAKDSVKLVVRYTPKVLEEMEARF

T6: GRIP1_5, Q9Y3R0
T6 sequence (Q9Y3R0 568-668, limits assumed, looked up): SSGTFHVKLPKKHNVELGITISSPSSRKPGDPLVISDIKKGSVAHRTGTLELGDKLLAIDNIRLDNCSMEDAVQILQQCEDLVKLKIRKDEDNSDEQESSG

T7: PDZRN3_1, Q9UPQ7
T7 sequence (Q9UPQ7 244-349, limits assumed, looked up): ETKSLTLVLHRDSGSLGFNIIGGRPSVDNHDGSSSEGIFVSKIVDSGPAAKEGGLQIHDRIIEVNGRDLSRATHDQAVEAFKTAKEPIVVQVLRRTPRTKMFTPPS

T8: GRIP1_3, Q9Y3R0
T8 sequence (Q9Y3R0 247-346, limits assumed, looked up): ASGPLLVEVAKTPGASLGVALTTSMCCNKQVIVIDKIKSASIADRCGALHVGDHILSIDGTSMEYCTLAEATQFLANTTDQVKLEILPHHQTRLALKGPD

T9: RAPGEF6, Q8TEU7
T9 sequence (Q8TEU7 525-625, limits assumed, looked up): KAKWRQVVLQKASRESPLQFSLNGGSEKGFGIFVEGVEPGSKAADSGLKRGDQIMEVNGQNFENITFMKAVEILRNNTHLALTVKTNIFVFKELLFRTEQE

T10: TJP3_3, O95049
T10 sequence (O95049 375-456, limits assumed, looked up): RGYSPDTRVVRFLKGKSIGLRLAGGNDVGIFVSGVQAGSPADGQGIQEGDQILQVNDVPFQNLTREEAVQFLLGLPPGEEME


How the values were obtained:
Assay in all cases: holdup assay
Set-up in all cases: key: below the threshold = too weak to quantify, mostly under pKd 3.1 to 4
Conditions in all cases: plain residues with an end cap or a label only (N-terminal biotin on a linker: ado-ado)
HTRA1, Q92743 = target: HTRA1, Q92743
Chain of HTRA1, Q92743 (Q92743 360-477): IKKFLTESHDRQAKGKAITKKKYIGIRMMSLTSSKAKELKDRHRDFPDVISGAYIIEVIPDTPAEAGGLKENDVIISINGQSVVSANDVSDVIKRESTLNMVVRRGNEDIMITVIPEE

GRIP1_2, Q9Y3R0 = target: T1, GRIP1_2, Q9Y3R0
MAGI1_1, Q96QZ7 = target: MAGI1_1, Q96QZ7
Chain of MAGI1_1, Q96QZ7 (Q96QZ7 1-106): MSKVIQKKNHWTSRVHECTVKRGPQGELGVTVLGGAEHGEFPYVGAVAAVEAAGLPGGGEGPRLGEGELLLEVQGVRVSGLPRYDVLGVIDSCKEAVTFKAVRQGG

RADIL, Q96JH8 = target: T2, RADIL, Q96JH8
RHPN1, Q8TCX5 = target: T3, RHPN1, Q8TCX5
DLG5_1, Q8TDM6 = target: DLG5_1, Q8TDM6
Chain of DLG5_1, Q8TDM6 (Q8TDM6 617-713): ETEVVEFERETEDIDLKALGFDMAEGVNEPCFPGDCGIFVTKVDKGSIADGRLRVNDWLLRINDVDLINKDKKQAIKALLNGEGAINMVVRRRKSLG

FRMPD1, Q5SYB0 = target: T4, FRMPD1, Q5SYB0
PDZRN4_1, Q6ZMN7 = target: PDZRN4_1, Q6ZMN7
Chain of PDZRN4_1, Q6ZMN7 (Q6ZMN7 213-318): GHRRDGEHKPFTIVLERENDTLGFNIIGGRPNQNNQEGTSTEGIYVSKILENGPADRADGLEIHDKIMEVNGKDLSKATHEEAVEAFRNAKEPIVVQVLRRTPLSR

DLG4_3, P78352 = target: DLG4_3, P78352
Chain of DLG4_3, P78352 (P78352 306-403): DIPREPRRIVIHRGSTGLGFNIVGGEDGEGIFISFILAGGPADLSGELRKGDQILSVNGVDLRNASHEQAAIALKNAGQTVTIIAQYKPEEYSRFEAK

LNX1_1, Q8TBB1 = target: LNX1_1, Q8TBB1
Chain of LNX1_1, Q8TBB1 (Q8TBB1 261-371): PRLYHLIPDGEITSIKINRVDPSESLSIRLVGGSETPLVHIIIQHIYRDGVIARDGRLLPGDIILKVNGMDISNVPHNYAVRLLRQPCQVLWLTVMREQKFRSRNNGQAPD

DLG1_1, Q12959 = target: DLG1_1, Q12959
LIN7A, O14910 = target: T5, LIN7A, O14910
GRIP1_5, Q9Y3R0 = target: T6, GRIP1_5, Q9Y3R0
SCRIB_1, Q14160 = target: SCRIB_1, Q14160
Chain of SCRIB_1, Q14160 (Q14160 718-814): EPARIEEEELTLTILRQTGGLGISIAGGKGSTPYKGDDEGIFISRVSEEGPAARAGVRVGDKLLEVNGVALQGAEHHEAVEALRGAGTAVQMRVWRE

GOPC, Q9HD26 = target: GOPC, Q9HD26
NHERF4_2, Q86UT5 = target: NHERF4_2, Q86UT5
Chain of NHERF4_2, Q86UT5 (Q86UT5 220-308): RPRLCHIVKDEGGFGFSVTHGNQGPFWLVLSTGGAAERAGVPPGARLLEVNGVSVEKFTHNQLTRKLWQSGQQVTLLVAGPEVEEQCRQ

GORASP1, Q9BQQ3 = target: GORASP1, Q9BQQ3
Chain of GORASP1, Q9BQQ3 (Q9BQQ3 1-208): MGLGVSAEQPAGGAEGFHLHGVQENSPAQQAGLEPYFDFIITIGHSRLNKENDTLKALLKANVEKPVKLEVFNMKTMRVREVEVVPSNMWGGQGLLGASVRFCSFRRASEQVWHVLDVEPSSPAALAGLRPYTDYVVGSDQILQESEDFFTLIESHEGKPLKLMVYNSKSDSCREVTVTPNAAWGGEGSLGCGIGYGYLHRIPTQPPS

PDLIM1, O00151 = target: PDLIM1, O00151
Chain of PDLIM1, O00151 (O00151 1-87): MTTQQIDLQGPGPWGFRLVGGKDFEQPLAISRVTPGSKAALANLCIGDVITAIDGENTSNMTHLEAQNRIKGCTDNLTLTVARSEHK

Inadl_10, Q8NI35 = target: Inadl_10, Q8NI35
Chain of Inadl_10, Q8NI35 (Q8NI35 1673-1763): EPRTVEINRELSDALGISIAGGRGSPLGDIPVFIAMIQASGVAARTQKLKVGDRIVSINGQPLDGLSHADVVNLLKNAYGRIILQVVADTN

TJP2_1, Q9UDY2 = target: TJP2_1, Q9UDY2
Chain of TJP2_1, Q9UDY2 (Q9UDY2 24-128): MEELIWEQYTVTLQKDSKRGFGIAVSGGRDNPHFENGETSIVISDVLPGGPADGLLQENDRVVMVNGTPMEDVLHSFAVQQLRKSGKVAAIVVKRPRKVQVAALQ

MAST2, Q6P0Q8 = target: MAST2, Q6P0Q8
Chain of MAST2, Q6P0Q8 (Q6P0Q8 1099-1202): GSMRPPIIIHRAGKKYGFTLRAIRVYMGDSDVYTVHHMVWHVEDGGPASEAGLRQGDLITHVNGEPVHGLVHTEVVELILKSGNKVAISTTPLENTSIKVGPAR

PDZRN3_1, Q9UPQ7 = target: T7, PDZRN3_1, Q9UPQ7
GRIP1_3, Q9Y3R0 = target: T8, GRIP1_3, Q9Y3R0
GORASP2, Q9H8Y8 = target: GORASP2, Q9H8Y8
RAPGEF6, Q8TEU7 = target: T9, RAPGEF6, Q8TEU7
NHERF4_4, Q86UT5 = target: NHERF4_4, Q86UT5
Chain of NHERF4_4, Q86UT5 (Q86UT5 464-550): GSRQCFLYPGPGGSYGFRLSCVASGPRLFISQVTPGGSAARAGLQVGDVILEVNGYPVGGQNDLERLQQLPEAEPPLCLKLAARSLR

TJP3_3, O95049 = target: T10, TJP3_3, O95049
LNX1_3, Q8TBB1 = target: LNX1_3, Q8TBB1
Chain of LNX1_3, Q8TBB1 (Q8TBB1 500-596): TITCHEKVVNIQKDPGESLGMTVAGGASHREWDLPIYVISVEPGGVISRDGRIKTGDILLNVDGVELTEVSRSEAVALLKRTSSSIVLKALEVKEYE

Binder | pKd (HTRA1, Q92743) | pKd (GRIP1_2, Q9Y3R0) | pKd (MAGI1_1, Q96QZ7) | pKd (RADIL, Q96JH8) | pKd (RHPN1, Q8TCX5) | pKd (DLG5_1, Q8TDM6) | pKd (FRMPD1, Q5SYB0) | pKd (PDZRN4_1, Q6ZMN7) | pKd (DLG4_3, P78352) | pKd (LNX1_1, Q8TBB1) | pKd (DLG1_1, Q12959) | pKd (LIN7A, O14910) | pKd (GRIP1_5, Q9Y3R0) | pKd (SCRIB_1, Q14160) | pKd (GOPC, Q9HD26) | pKd (NHERF4_2, Q86UT5) | pKd (GORASP1, Q9BQQ3) | pKd (PDLIM1, O00151) | pKd (Inadl_10, Q8NI35) | pKd (TJP2_1, Q9UDY2) | other results
VYEVPVETKF [SLC26A3, P40879] | below the threshold | below the threshold | below the threshold | below the threshold | 4.03 | below the threshold | below the threshold | below the threshold | below the threshold | 3.85 | below the threshold | below the threshold | below the threshold | 4.18 | below the threshold | below the threshold | below the threshold | below the threshold | below the threshold | 4.02 | pKd (MAST2, Q6P0Q8): 5.48; pKd (PDZRN3_1, Q9UPQ7): below the threshold; pKd (GRIP1_3, Q9Y3R0): below the threshold; pKd (GORASP2, Q9H8Y8): below the threshold; pKd (RAPGEF6, Q8TEU7): below the threshold; pKd (NHERF4_4, Q86UT5): below the threshold; pKd (TJP3_3, O95049): below the threshold; pKd (LNX1_3, Q8TBB1): below the threshold
THREVKFTSL [CD46, P15529] | 3.89 | below the threshold | below the threshold | 3.49 | 4.48 | below the threshold | below the threshold | 4.57 | 4.3 | 3.5 | below the threshold | below the threshold | below the threshold | 4.95 | 4.05 | below the threshold | below the threshold | below the threshold | 3.49 | 3.73 | pKd (MAST2, Q6P0Q8): 5.57; pKd (PDZRN3_1, Q9UPQ7): 4.27; pKd (GRIP1_3, Q9Y3R0): below the threshold; pKd (GORASP2, Q9H8Y8): below the threshold; pKd (RAPGEF6, Q8TEU7): below the threshold; pKd (NHERF4_4, Q86UT5): below the threshold; pKd (TJP3_3, O95049): below the threshold; pKd (LNX1_3, Q8TBB1): below the threshold
QKNKDREYYV [NRXN3, Q9HDB5] | 5.49 | below the threshold | below the threshold | 4.7 | below the threshold | below the threshold | below the threshold | below the threshold | below the threshold | 3.65 | below the threshold | below the threshold | below the threshold | below the threshold | below the threshold | below the threshold | 4.33 | below the threshold | below the threshold | 3.52 | pKd (MAST2, Q6P0Q8): 3.77; pKd (PDZRN3_1, Q9UPQ7): below the threshold; pKd (GRIP1_3, Q9Y3R0): below the threshold; pKd (GORASP2, Q9H8Y8): 4.67; pKd (RAPGEF6, Q8TEU7): below the threshold; pKd (NHERF4_4, Q86UT5): below the threshold; pKd (TJP3_3, O95049): 3.98; pKd (LNX1_3, Q8TBB1): 4.09
PSDSVGKDVF [EGLN1, Q9GZT9] | 3.77 | below the threshold | below the threshold | below the threshold | below the threshold | below the threshold | below the threshold | below the threshold | below the threshold | below the threshold | below the threshold | below the threshold | below the threshold | below the threshold | below the threshold | below the threshold | below the threshold | below the threshold | below the threshold | below the threshold | pKd (MAST2, Q6P0Q8): below the threshold; pKd (PDZRN3_1, Q9UPQ7): below the threshold; pKd (GRIP1_3, Q9Y3R0): below the threshold; pKd (GORASP2, Q9H8Y8): below the threshold; pKd (RAPGEF6, Q8TEU7): below the threshold; pKd (NHERF4_4, Q86UT5): below the threshold; pKd (TJP3_3, O95049): below the threshold; pKd (LNX1_3, Q8TBB1): below the threshold
